Data on one substance can be found in patent US7084109B2, “FVIIa antagonists” (Genentech, Inc., priority 1999, dated 2006).

In one assay the target is TF-FVIIa (Homo sapiens, UniProt P08709). As to the kind of experiment: FX Activation Assay (activation of FX by TF-FVIIa). In kind it is biochemical. As for the experimental part:
FX Activation Assay—Activation of FX by TF-FVIIa was monitored at room temperature as a function of peptide concentration. Each assay sample contained 100 μl of 460 pM relipidated TF1-243 (TFPC) (Kelley, R. F. et al. (1997) Blood 89:3219-3227) and 30 pM FVIIa in HBS/Ca buffer (20 mM HEPES, pH 7.4, 5 mM CaCl2, 150 mM NaCl, 0.1% PEG 8000); after 20 min, 25 μl of peptide diluted in HBS/Ca Buffer was added. Following a 30 min incubation the reaction was initiated by the addition of 25 μl of 1 μM FX in HBS/Ca (Note: this yields a final concentration of 306 pM TFPC, 20 pM FVIIa, and 166 nM FX). For kinetic analysis, the final concentration of FX was varied from between 20 and 500 nM. Aliquots of 25 μl were removed at 1, 3, 5, 7 and 9 min and quenched in 25 μl of 50 mM EDTA. The FXa generated in each aliquot could be measured by the addition of 100 μl of 250 nM Spectrozyme fXa (American Diagnostica), 50 mM Tris, pH 8, 50 mM NaCl, 0.0025% Triton X-100. The rate of FXa generated at each peptide concentration was proportional to the initial slope of the absorbance at 405 nm vs. time. Sigmoidal curves were fit to a four parameter equation by nonlinear regression analysis (Marquardt, J. Soc. Indust. Appl. Math. 11:431-441 (1963); the concentration of each peptide required to give a half-maximal signal in the assay was calculated from the curves and is referred to as the IC50 value. […]

Assay [1] relates to TF dependent extrinsic clotting pathway in human plasma. As to the kind of experiment: Prothrombin time (PT) clotting assay. The procedure: Clotting Assays—Prothrombin time (PT) and activated partial thromboplastin time (APTT) clotting time assays were performed in citrated pooled normal plasmas (human or various animal species). Clotting times were determined using an ACL 300 Automated Coagulation Analyzer (Coulter Corp., Miami, Fla.) and commercially available reagents as follows.
For the PT assay, aqueous solutions of inhibitor at various concentrations were added to citrated pooled normal plasma in a ratio of 1 part inhibitor to 9 parts plasma. Following a 30 min incubation, these mixtures were added to sample cups of an ACL 300 Analyzer. Innovin® (Dade International Inc., Miami, Fla.), a mixture of human relipidated tissue factor and Ca^2+ ions was added to the reagent cup. Precise volumes of sample and Innovin® (50 μl sample, 100 μl Innovin) were automatically transferred to cells of an acrylic rotor pre-equilibrated to 37° C. Following a 2 min incubation period, coagulation was initiated by mixing the two components by centrifugation. Coagulation was monitored optically and clotting time was reported in seconds. In this system, the clotting time of control plasmas (plasma plus inhibitor diluent) was typically 8 to 10 seconds. The fold prolongation is the clotting time of the inhibitor relative to the clotting time of the control.
Clotting Assays—The PT clotting assay was carried out as described in Example 1.

No end group written: not given here.

TF-FVIIa, sequence (P08709 61-212 limits assumed): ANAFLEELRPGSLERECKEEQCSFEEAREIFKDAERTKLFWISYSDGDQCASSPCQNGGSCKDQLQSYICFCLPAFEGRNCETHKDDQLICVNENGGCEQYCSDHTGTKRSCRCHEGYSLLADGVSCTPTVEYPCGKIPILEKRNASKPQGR
TF-FVIIa, sequence (P08709 213-466 limits assumed): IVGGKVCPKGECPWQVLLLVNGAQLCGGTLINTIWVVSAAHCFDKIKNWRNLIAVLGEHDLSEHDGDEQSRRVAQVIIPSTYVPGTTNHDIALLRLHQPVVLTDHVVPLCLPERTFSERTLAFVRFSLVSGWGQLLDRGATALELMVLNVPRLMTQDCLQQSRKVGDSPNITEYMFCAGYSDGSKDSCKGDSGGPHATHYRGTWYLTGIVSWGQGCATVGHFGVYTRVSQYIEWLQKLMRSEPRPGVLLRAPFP
TF-FVIIa, sequence (P13726 33-275 partner limits assumed): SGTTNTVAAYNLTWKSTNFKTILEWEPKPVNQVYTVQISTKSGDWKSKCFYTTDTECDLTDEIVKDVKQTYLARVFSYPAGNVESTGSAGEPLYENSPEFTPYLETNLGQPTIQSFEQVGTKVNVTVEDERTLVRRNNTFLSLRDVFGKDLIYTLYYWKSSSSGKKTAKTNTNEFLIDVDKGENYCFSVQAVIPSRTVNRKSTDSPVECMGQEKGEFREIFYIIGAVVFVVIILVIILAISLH

“TF151-Fc: peptide sequence TF151 with a GGGSSG linker fused to the Fc portion of human IgG1, expressed in insect cells; forms a dimer (SQAQRRAVGALCDNPRIDRWYCQFVEGGGGSSG-{human IgG1 Fc}; cysteine pairing not given here; also: dimer)”: the “ability to inhibit FX activation by TF-FVIIa” value in the assay with TF-FVIIa is reported as “comparable to the peptide TF151”. Besides, the “prolongation of the prothrombin time (potency)” value in assay [1] was “comparable to peptide TF151”.
